Columns and labels:
Settings in all cases: both partners purified
[1] = molecular target: T1, Recombinant human von Willebrand factor concatemers, labeled with biotin and Alexa Fluor 488 (human, UniProt P04275 764-2813, biotin (~0.3 per monomer, from Sulfo-NHS-LC-Biotin); Alexa Fluor 488 (0.67 fluorophore/monomer)); assay: two-colour single-molecule TIRF imaging under flow; as a1; 150 mM NaCl; VWF regions at average tension 20 ± 2.3 pN; apparent kon and koff, KD = koff/kon
T1 construct: Disulfide-linked concatemers of varying length; held on the flow-chamber wall through biotin and Traptavidin; also called VWF; VWF concatemer; source: Chinese hamster ovary cells, furin-treated, purified to >99% (Baxter BioScience); labeled, Sepharose CL-2B gel filtration, fraction 1; copies: ~20-200

[2] = molecular target: T1, Recombinant human von Willebrand factor …; assay: two-colour single-molecule TIRF imaging under flow; as a1; 150 mM NaCl; VWF regions at average tension 36 ± 2.3 pN; apparent kon and koff, KD = koff/kon
[3] = molecular target: T1, Recombinant human von Willebrand factor …; assay: two-colour single-molecule TIRF imaging under flow; as a1 but 10 mM NaCl; VWF regions at average tension 52 ± 2.3 pN; apparent kon and koff, KD = koff/kon
[4] = molecular target: T1, Recombinant human von Willebrand factor …; assay: two-colour single-molecule TIRF imaging under flow; as a1 but 10 mM NaCl; VWF regions at average tension 36 ± 2.3 pN; apparent kon and koff, KD = koff/kon
[5] = molecular target: T1, Recombinant human von Willebrand factor …; assay: two-colour single-molecule TIRF imaging under flow; as a1 but 10 mM NaCl; VWF regions at average tension 28 ± 2.3 pN; apparent kon and koff, KD = koff/kon
[6] = molecular target: T1, Recombinant human von Willebrand factor …; assay: two-colour single-molecule TIRF imaging under flow; as a1 but 10 mM NaCl; VWF regions at average tension 44 ± 2.3 pN; apparent kon and koff, KD = koff/kon
[7] = molecular target: T1, Recombinant human von Willebrand factor …; assay: two-colour single-molecule TIRF imaging under flow; as a1 but 10 mM NaCl; VWF regions at average tension 20 ± 2.3 pN; apparent kon and koff, KD = koff/kon
[8] = molecular target: T1, Recombinant human von Willebrand factor …; assay: two-colour single-molecule TIRF imaging under flow; as a1; 150 mM NaCl; VWF regions at average tension 44 ± 2.3 pN; apparent kon and koff, KD = koff/kon
[9] = molecular target: T1, Recombinant human von Willebrand factor …; assay: two-colour single-molecule TIRF imaging under flow; as a1; 150 mM NaCl; VWF regions at average tension 28 ± 2.3 pN; apparent kon and koff, KD = koff/kon
[10] = molecular target: T1, Recombinant human von Willebrand factor …; assay: two-colour single-molecule TIRF imaging under flow; as a1 but 10 mM NaCl; combined fit of the two highest force bins, tension 40-56 pN; apparent kon and koff, KD = koff/kon
[11] = molecular target: T1, Recombinant human von Willebrand factor …; assay: two-colour single-molecule TIRF imaging under flow; dissociation of GPIbα after flow cessation from 1280 to 0 dyn cm^-2, 57 fps, 20 concatemers, three flow cycles each; 100 nM GPIbα, 150 mM NaCl
[12] = molecular target: T1, Recombinant human von Willebrand factor …; assay: two-colour single-molecule TIRF imaging under flow; as a1; 150 mM NaCl; VWF regions at average tension 52 ± 2.3 pN; apparent kon and koff, KD = koff/kon
[13] = molecular target: T1, Recombinant human von Willebrand factor …; assay: two-colour single-molecule TIRF imaging under flow; biotin/Alexa 488-VWF tethered to Traptavidin on the chamber wall, Alexa 647-GPIbα in solution at five concentrations; association kinetics after shift from 0 to 1280 dyn cm^-2; 150 mM NaCl, 20 mM HEPES pH 7.4, 0.02% Tween 20; VWF regions at average tension 12 ± 2.2 pN; apparent kon and koff, 1:1 fit, KD = koff/kon
[14] = molecular target: T1, Recombinant human von Willebrand factor …; assay: two-colour single-molecule TIRF imaging under flow; as a1 but 10 mM NaCl; VWF regions at average tension 12 ± 2.2 pN; apparent kon and koff, KD = koff/kon
[15] = molecular target: T1, Recombinant human von Willebrand factor …; assay: two-colour single-molecule TIRF imaging under flow; as a1; 150 mM NaCl; combined fit of the two highest force bins, tension 40-56 pN, where activation by force is maximal; apparent kon and koff, KD = koff/kon

- Kd [1]: 290 nM
- koff [1]: 3.8 s⁻¹
- kon [1]: 1.3e+07 M⁻¹ s⁻¹
- Kd [2]: 68 nM
- koff [2]: 3.3 s⁻¹
- kon [2]: 4.9e+07 M⁻¹ s⁻¹
- Kd [3]: 0.6 nM
- koff [3]: 0.3 s⁻¹
- kon [3]: 5.38e+08 M⁻¹ s⁻¹
- Kd [4]: 0.8 nM
- koff [4]: 0.4 s⁻¹
- kon [4]: 5.08e+08 M⁻¹ s⁻¹
- Kd [5]: 1.1 nM
- koff [5]: 0.5 s⁻¹
- kon [5]: 4.65e+08 M⁻¹ s⁻¹
- Kd [6]: 0.6 nM
- koff [6]: 0.3 s⁻¹
- kon [6]: 5.38e+08 M⁻¹ s⁻¹
- Kd [7]: 4.1 nM
- koff [7]: 1.1 s⁻¹
- kon [7]: 2.61e+08 M⁻¹ s⁻¹
- Kd [8]: 85 nM
- koff [8]: 4.2 s⁻¹
- kon [8]: 4.9e+07 M⁻¹ s⁻¹
- Kd [9]: 102 nM
- koff [9]: 3.5 s⁻¹
- kon [9]: 3.5e+07 M⁻¹ s⁻¹
- Kd [10]: 0.6 nM
- koff [10]: 0.3 s⁻¹
- kon [10]: 5.38e+08 M⁻¹ s⁻¹
- koff [11]: ≥ 23 s⁻¹
- Kd [12]: 71 nM
- koff [12]: 3.6 s⁻¹
- kon [12]: 5.1e+07 M⁻¹ s⁻¹
- Kd [13]: 18000 nM
- koff [13]: 2.3 s⁻¹
- kon [13]: 100000 M⁻¹ s⁻¹
- Kd [14]: 5.3 nM
- koff [14]: 1.1 s⁻¹
- kon [14]: 2.13e+08 M⁻¹ s⁻¹
- Kd [15]: 78 nM
- koff [15]: 3.9 s⁻¹
- kon [15]: 5e+07 M⁻¹ s⁻¹
B1: Wild-type human platelet GPIbα (His1 to Arg290), Alexa Fluor 647-labeled (domain or fragment, UniProt P07359 17-306, looked up)
chain: HPICEVSKVASHLEVNCDKRNLTALPPDLPKDTTILHLSENLLYTFSLATLMPYTRLTQLNLDRCELTKLQVDGTLPVLGTLDLSHNQLQSLPLLGQTLPALTVLDVSFNRLTSLPLGALRGLGELQELYLKGNELKTLPPGLLTPTPKLEKLSLANNNLTELPAGLLNGLENLDTLLLQENSLYTIPKGFFGSHLLPFAFLHGNPWLCNCEILYFRRWLQDNAENVYVWKQGVDVKAMTSNVASVQCDNSDKFPVYKYPGKGCPTLGDEGDTDLYDYYPEEDTEGDKVR
modifications: Alexa Fluor 647 (NHS ester; fluorophore:GPIbα 1.01:1)
notes: platelet glycoprotein Ib alpha chain, human, wild type, His1 to Arg290; also called GPIα-Alexa Fluor 647; source: HEK293T, transiently transfected, culture supernatant, purified (Ni-NTA, Superdex 200 SEC)

Source: paper PMC5567343, “Flow-induced elongation of von Willebrand factor precedes tension-dependent activation” (Nature Communications, 2017)
